We go through 3 molecules from patent publication US20250154279A1 (BEIGENE, published 2025).

Test [1] deals with T1, human CD137 ECD-mIgG2a (human).
T1 construct: also called huCD137
Kind of test: SPR (BIAcore T-200), BE-774 captured by anti-kappa antibody, human CD137 ECD-mIgG2a flowed over. Here is the method:
(§1) Briefly, anti-kappa antibody was immobilized on an activated CM5 biosensor chip (Cat.: BR100839, GE Life Sciences). […] Then a serial dilution (6.0 nM to 2150 nM) of human CD137 ECD-mIgG2a or huGPC3-His were flowed over the chip surface and changes in surface plasmon resonance signals were analyzed to calculate the association rates (kₒₙ) and dissociation rates (koff) by using the one-to-one Langmuir binding model (BIA Evaluation Software, GE Life Sciences). The equilibrium dissociation constant (KD) was calculated as the ratio koff/kₒₙ. […] Goat anti-Human IgG was used as secondary antibody to detect antibody binding to the cell surface. EC₅₀ values for dose-dependent binding to human native CD137 were determined by fitting the dose-response data to the four-parameter logistic model with GraphPad Prism™. […] Goat anti-Human IgG was used as secondary antibody to detect antibody binding to the cell surface. EC₅₀ values for dose-dependent binding to human native GPC3 were determined by fitting the dose-response data to the four-parameter logistic model with GraphPad Prism™.

Test [2] deals with T2, human CD137 over-expressed on HuT78 cells (HuT78/CD137) (human, UniProt Q07011 24-255).
T2 construct: also called Hut78/huCD137; native CD137
T2 sequence (Q07011 24-255 limits assumed): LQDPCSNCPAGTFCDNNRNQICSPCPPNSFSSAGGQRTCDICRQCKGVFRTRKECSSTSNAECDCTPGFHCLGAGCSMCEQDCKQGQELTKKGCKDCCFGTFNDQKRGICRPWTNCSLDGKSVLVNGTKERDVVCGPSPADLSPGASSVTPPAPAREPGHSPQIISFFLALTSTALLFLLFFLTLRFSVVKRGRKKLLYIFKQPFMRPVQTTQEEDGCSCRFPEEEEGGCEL
Put plainly: flow cytometry on live Hut78/huCD137 cells. Here is the method: as §1
Background: Flow cytometry measures light scatter and fluorescence of single cells or particles in a stream.

Test [3] deals with T3, human GPC3 expressed on HepG2 cells (human, UniProt P51654 25-554).
T3 construct: also called native huGPC3; native GPC3
T3 sequence (P51654 25-554 limits assumed): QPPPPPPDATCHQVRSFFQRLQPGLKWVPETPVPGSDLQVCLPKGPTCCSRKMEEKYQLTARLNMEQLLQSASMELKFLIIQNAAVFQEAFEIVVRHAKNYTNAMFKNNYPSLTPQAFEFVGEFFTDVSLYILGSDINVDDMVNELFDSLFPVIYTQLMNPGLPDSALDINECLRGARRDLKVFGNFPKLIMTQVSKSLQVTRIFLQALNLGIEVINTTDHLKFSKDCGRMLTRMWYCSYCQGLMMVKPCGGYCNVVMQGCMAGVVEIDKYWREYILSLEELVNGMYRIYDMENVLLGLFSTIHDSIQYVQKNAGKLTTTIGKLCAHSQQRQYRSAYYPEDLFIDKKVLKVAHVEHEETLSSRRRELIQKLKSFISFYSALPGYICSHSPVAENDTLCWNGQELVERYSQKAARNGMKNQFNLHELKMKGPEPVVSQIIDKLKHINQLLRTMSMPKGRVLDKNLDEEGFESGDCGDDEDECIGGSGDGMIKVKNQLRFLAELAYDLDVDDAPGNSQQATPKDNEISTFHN
Kind of test: flow cytometry on HepG2 cells. As for the experimental part:
as §1

For test [4], the target named is T4, huGPC3-His (human, UniProt P51654 25-559, limits assumed).
T4 construct: not shown: His tag
T4 sequence (P51654 25-559 limits assumed): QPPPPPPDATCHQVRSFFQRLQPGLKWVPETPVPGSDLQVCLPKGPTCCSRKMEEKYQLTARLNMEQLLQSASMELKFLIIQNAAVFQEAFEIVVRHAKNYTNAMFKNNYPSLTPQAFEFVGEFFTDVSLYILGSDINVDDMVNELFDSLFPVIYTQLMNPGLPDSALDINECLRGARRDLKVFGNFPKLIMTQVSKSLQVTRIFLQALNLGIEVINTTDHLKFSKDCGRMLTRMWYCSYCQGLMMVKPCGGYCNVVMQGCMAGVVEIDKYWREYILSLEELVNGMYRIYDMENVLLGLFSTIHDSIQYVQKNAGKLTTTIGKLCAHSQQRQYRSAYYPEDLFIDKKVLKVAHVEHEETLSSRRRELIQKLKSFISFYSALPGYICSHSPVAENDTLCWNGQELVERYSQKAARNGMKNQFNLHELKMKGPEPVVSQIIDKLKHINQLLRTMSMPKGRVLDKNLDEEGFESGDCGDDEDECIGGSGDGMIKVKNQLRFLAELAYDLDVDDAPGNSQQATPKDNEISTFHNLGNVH
Kind of test: SPR (BIAcore T-200), BE-774 captured by anti-kappa antibody, huGPC3-His flowed over. Here is the method: as §1
In general terms: Surface plasmon resonance follows binding to a sensor surface in real time, without labels.

The target in test [5] is T2, human CD137 over-expressed on HuT78 …. Kind of test: flow cytometry on HuT78/CD137 cells, detection anti-hFc 647, no CD137L added.
Test [6] concerns the target T5, cynomolgus monkey CD137 ECD (cynomolgus monkey).
T5 construct: also called Cyno CD137; Cyno CD137 ECD
T5 chain: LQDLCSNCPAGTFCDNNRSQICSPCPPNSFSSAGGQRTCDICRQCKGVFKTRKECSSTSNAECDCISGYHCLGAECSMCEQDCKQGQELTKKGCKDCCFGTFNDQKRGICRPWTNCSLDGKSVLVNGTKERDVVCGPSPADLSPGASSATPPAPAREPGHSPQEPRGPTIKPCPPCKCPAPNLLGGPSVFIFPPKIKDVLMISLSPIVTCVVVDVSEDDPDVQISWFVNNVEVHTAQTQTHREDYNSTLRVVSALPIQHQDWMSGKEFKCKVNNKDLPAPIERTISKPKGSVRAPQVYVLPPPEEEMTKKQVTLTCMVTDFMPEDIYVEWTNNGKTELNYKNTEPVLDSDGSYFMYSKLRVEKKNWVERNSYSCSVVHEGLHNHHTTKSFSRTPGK
Kind of test: SPR. As for the experimental part:
(§2) The binding kinetics of the antibodies were measured using surface plasmon resonance (SPR). SPR was used to measure the on-rate constant (Kₐ) and off-rate constant (Kd) of the antibodies to recombinant proteins of CD137 and GPC3 and then determined the affinity constant (KD).

Test [7] has as its target T6, human GPC3 (Cat.: 10088-H08H, Sino Biological, CHINA) (human, UniProt P51654 25-559).
T6 construct: Bought protein
Kind of test: SPR. Here is the method: as §2

Test [8] deals with T7, human CD137 (Cat.: 41B-H5256, Acrobio, CHINA) (human, UniProt Q07011 24-186).
T7 construct: Bought protein
Put plainly: SPR. Here is the method: as §2

The target in test [9] is T8, cynomolgus monkey GPC3 (Cat.: GP3-C5225, Acrobio, CHINA) (cynomolgus monkey, UniProt A0A2K5VK50 24-558).
T8 construct: also called Cyno GPC3
Kind of test: SPR. Here is the method: as §2

Test [10] deals with T2, human CD137 over-expressed on HuT78 …. Kind of test: FACS on HuT78/CD137 cells.
The target in test [11] is T3, human GPC3 expressed on HepG2 cells. Kind of test: FACS on HepG2 cells.
The target in test [12] is T9, human CD137 (recombinant antigen of the ELISA of Example 2 and the SPR of Example 3; construct not stated) (human, UniProt Q07011 24-186, limits assumed).
T9 construct: also called huCD137
Put plainly: SPR.

For test [13], the target named is T2, human CD137 over-expressed on HuT78 …. Kind of test: flow cytometry on live HuT78/CD137 cells. Here is the method:
To evaluate the binding activity of anti-CD137 antibody to bind native CD137 on live cells, HuT78 cells were engineered to over-express human CD137. Live HuT78/CD137 cells were seeded in a 96-well plate, and were incubated with a series of dilutions of anti-CD137 antibody. Goat anti-Human IgG was used as secondary antibody to detect antibody binding to the cell surface. EC₅₀ values for dose-dependent binding to human native CD137 were determined by fitting the dose-response data to the four-parameter logistic model with GraphPad Prism™. The humanized VHHs retained sub-nanomolar binding affinity to native CD137.

Test [14] deals with T9, human CD137 (recombinant antigen of the …). Kind of test: SPR, antibody captured on anti-human Fc surface, Test 1. The text has this: (§3) For affinity determination, antibodies were captured by anti-human Fe surface, and used in the affinity—assay based on surface plasmon resonance (SPR) technology.
For test [15] the target is unchanged. Put plainly: SPR, antibody captured on anti-human Fc surface, Test 2.
Excerpt: as §3

T6 sequence (P51654 25-559 limits assumed): as the sequence (P51654 25-559 limits assumed) above

B1: BE-774 (anti-GPC3 x CD137 bispecific antibody, GPC3 antibody + VHH BGA-9612, IgG1mf Fc-YTE) (bispecific antibody)
heavy: QVQLVQSGAEVKKPGASVKVSCKASGYTFTDYEMHWVRQAPGQGLEWMGALDPKTGDTAYSQKFKGRVTLTADKSTSTAYMELSSLTSEDTAVYYCTRFYSYTYWGQGTLVTVSSASTKGPSVFPLAPSSKSTSGGTAALGCLVKDYFPEPVTVSWNSGALTSGVHTFPAVLQSSGLYSLSSVVTVPSSSLGTQTYICNVNHKPSNTKVDKKVEPKSCDKTHTCPPCPAPPAAGPSVFLFPPKPKDTLYITREPEVTCVVVDVSHEDPEVKFNWYVDGVEVHNAKTKPREEQYNSTYRVVSVLTVLHQDWLNGKEYKCKVSNKALAAPIEKTISKAKGQPREPQVYTLPPSREEMTKNQVSLTCLVKGFYPSDIAVEWESNGQPENNYKTTPPVLDSDGSFFLYSKLTVDKSRWQQGNVFSCSVMHEALHNHYTQKSLSLSPGKGGGGSEVQLVESGGGTVQPGDSLRLSCAASGRTFDNYAVGWFRQAPGKERQYVGTYWSGYAHYGDFENNRFTISRDNAKNTVYLQMDNLKPEDTAVYYCAISLKYPMATVTPDYQGQGTQVTVSS
light: DVVMTQSPLSLPVTPGEPASISCRSSQSLVHSNRNTYLHWYLQKPGQSPQLLIYKVSNRFSGVPDRFSGSGSGTDFTLKISRVEAEDVGVYYCSQNTHVPPTFGQGTKLEIKRTVAAPSVFIFPPSDEQLKSGTASVVCLLNNFYPREAKVQWKVDNALQSGNSQESVTEQDSKDSTYSLSSTLTLSKADYEKHKVYACEVTHQGLSSPVTKSFNRGEC
For the molecule B1, in [1], the dissociation constant Kd (as a rule, the constant that tells how readily two partners part at equilibrium) came to 0.529 nM; the koff (usually the rate constant with which the complex falls apart) stood at 0.000425 s⁻¹; the association rate constant (kon) – broadly, the rate constant with which the complex forms – amounted to 804000 M⁻¹ s⁻¹. Also, a half-maximal response in test [2] (EC50) required 0.7 nM. The midpoint of the response in test [3], the EC50, lay at 0.9 nM. In [4], this molecule had an equilibrium dissociation constant (Kd) of 1.01 nM, an off-rate constant (koff) of 0.00022 s⁻¹ and an association rate constant (kon) of 218000 M⁻¹ s⁻¹.

B2: BE-915 (anti-GPC3 x CD137 bispecific antibody, GPC3 antibody + VHH BGA-2524, IgG1mf Fc-YTE) (bispecific antibody)
heavy: QVQLVQSGAEVKKPGASVKVSCKASGYTFTDYEMHWVRQAPGQGLEWMGALDPKTGDTAYSQKFKGRVTLTADKSTSTAYMELSSLTSEDTAVYYCTRFYSYTYWGQGTLVTVSSASTKGPSVFPLAPSSKSTSGGTAALGCLVKDYFPEPVTVSWNSGALTSGVHTFPAVLQSSGLYSLSSVVTVPSSSLGTQTYICNVNHKPSNTKVDKKVEPKSCDKTHTCPPCPAPPAAGPSVFLFPPKPKDTLYITREPEVTCVVVDVSHEDPEVKFNWYVDGVEVHNAKTKPREEQYNSTYRVVSVLTVLHQDWLNGKEYKCKVSNKALAAPIEKTISKAKGQPREPQVYTLPPSREEMTKNQVSLTCLVKGFYPSDIAVEWESNGQPENNYKTTPPVLDSDGSFFLYSKLTVDKSRWQQGNVFSCSVMHEALHNHYTQKSLSLSPGKGGGGSEVQLVESGGGLVQPGGSLRLSCAASGRTFDNYAVGWFRQAPGKEREYVGTYWSGYAHYGDFENNRFTISRDNAKNTVYLQMNNLRPEDTAVYYCAISLKYPMATVTPDYQGQGTQVTVSS
light: DVVMTQSPLSLPVTPGEPASISCRSSQSLVHSNRNTYLHWYLQKPGQSPQLLIYKVSNRFSGVPDRFSGSGSGTDFTLKISRVEAEDVGVYYCSQNTHVPPTFGQGTKLEIKRTVAAPSVFIFPPSDEQLKSGTASVVCLLNNFYPREAKVQWKVDNALQSGNSQESVTEQDSKDSTYSLSSTLTLSKADYEKHKVYACEVTHQGLSSPVTKSFNRGEC
B2: the EC50 (read off the curve) (as a rule, the concentration needed to bring the measured effect to its halfway point) in [5] is roughly 0.1 µg/mL. Also, the Kd was 4.4 nM in [6], 2.4 nM in test [7], 3.6 nM in test [8] and 0.53 nM in test [9]. Also, the koff in [6] came to 0.00055 s⁻¹; in [7] it was 0.00014 s⁻¹; in test [8] it was 0.00042 s⁻¹; in test [9], 0.00011 s⁻¹. The association rate constant (kon) stood at 130000 M⁻¹ s⁻¹ in [6], 58000 M⁻¹ s⁻¹ in test [7], 120000 M⁻¹ s⁻¹ in test [8] and 210000 M⁻¹ s⁻¹ in test [9]. The EC50 (commonly the concentration needed to bring the measured effect to its halfway point) in test [10] amounted to 0.69 nM; in [11] it was 1.09 nM.

B3: BGA-9612 (chimeric Fc-VHH, as compared with the humanized VHHs in Examples 3-4) (VHH)
chain: EPKSSDKTHTCPPCPAPPAAGPSVFLFPPKPKDTLMISRTPEVTCVVVDVSHEDPEVKFNWYVDGVEVHNAKTKPREEQYNSTYRVVSVLTVLHQDWLNGKEYKCKVSNKALAAPIEKTISKAKGQPREPQVYTLPPSREEMTKNQVSLTCLVKGFYPSDIAVEWESNGQPENNYKTTPPVLDSDGSFFLYSKLTVDKSRWQQGNVFSCSVMHEALHNHYTQKSLSLSPGKGGGGSQVQLVESGGGTVQPGDSLRLSCAASGRTFDNYAVGWFRQAPGKERQYVGTYWSGYAHYGDFENNRFTISRDNAKNTVYLQMDNLKPEDTAVYYCAISLKYPMATVTPDYQGQGTQVTVSS
For B3, in test [12], the dissociation constant (Kd) is 20.3 nM, the koff came out at 0.000419 s⁻¹ and the kon came out at 20700 M⁻¹ s⁻¹. Besides, the EC50 in test [13] stood at 0.85 nM. Moreover, in [14], the Kd is 20.3 nM, the koff is 0.000419 s⁻¹ and the kon came to 20700 M⁻¹ s⁻¹. In test [15], the dissociation constant Kd stood at 15.2 nM, the dissociation rate constant (koff) was found to be 0.000754 s⁻¹ and the kon stood at 49500 M⁻¹ s⁻¹.
